Target: trypsin (T9253, Merck Life Sciences) (UniProt P00760)
Test: cell-based or functional assay

T9253 sequence (P00760 24-246): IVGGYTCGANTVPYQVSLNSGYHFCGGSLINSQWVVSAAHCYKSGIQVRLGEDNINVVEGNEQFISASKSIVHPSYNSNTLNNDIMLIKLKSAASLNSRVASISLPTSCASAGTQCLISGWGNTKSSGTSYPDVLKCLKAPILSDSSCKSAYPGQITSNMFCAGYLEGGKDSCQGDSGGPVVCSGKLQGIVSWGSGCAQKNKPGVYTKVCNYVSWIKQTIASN

Substance | µg trypsin inhibited by 1 mg sample (BAPNA trypsin inhibition assay) (µg trypsin inhibited by 1 mg sample) | µg trypsin inhibited (BAPNA trypsin inhibition assay, casein at 0.1 mg/ml) (µg trypsin inhibited)
Human EGF (Peprotech, New Jersey, USA) (from UniProt P01133 971-1023) (ligand) | 1.43 | –
Ovomucoid (Sigma, USA) (from UniProt P01005 25-210) | 703 | –
calcium caseinate (C16) | 3.24 | 0.34
soya bean trypsin inhibitor (SBTI, Roche, Calif., USA) (from UniProt P01070 25-205) | 838 | –
